Publication PMC8683085, “Serine ADP-ribosylation marks nucleosomes for ALC1-dependent chromatin remodeling” (eLife, 2021)

Key:
[1] = biological target: H2BS6ADPr1 nucleosome, P68431
[2] = biological target: PARP1 (full-length, N-terminal 6xHis-tag) (UniProt P09874)
[3] = biological target: PARP1 (full-length, N-terminal 6xHis-tag) (UniProt P09874); remark: listed apart in the source

Sequence of PARP1 (full-length, N-terminal 6xHis-tag) (P09874 whole entry): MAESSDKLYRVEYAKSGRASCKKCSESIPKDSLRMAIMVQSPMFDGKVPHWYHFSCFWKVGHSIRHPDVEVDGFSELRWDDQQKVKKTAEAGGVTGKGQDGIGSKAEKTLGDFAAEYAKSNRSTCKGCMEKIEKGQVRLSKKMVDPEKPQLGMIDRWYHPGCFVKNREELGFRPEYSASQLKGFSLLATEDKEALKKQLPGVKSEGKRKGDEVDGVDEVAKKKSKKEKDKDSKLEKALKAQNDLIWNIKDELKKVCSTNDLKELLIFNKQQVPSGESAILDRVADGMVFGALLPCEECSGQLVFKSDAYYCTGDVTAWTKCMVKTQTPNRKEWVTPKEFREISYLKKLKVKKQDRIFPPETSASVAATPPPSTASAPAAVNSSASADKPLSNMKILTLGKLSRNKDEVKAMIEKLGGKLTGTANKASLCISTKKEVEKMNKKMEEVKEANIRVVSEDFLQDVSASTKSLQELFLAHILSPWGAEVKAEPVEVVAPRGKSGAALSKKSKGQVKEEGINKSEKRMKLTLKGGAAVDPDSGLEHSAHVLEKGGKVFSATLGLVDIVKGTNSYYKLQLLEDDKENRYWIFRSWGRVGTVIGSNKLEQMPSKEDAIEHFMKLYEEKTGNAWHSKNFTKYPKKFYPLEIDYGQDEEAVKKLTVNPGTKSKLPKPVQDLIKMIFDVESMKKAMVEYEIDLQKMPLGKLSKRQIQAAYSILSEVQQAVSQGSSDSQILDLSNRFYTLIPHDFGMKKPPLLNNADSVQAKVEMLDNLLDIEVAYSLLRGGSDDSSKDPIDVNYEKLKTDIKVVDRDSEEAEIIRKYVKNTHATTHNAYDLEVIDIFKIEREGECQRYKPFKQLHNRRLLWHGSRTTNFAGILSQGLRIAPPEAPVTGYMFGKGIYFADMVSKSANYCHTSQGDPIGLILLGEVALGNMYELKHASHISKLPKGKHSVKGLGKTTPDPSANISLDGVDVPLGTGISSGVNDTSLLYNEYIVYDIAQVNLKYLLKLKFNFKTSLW

B1: ALC1 (full-length, 6xHis-1xFLAG-ALC1), Q86WJ1 1-897 (enzyme)
chain: MERAGATSRGGQAPGFLLRLHTEGRAEAARVQEQDLRQWGLTGIHLRSYQLEGVNWLAQRFHCQNGCILGDEMGLGKTCQTIALFIYLAGRLNDEGPFLILCPLSVLSNWKEEMQRFAPGLSCVTYAGDKEERACLQQDLKQESRFHVLLTTYEICLKDASFLKSFPWSVLVVDEAHRLKNQSSLLHKTLSEFSVVFSLLLTGTPIQNSLQELYSLLSFVEPDLFSKEEVGDFIQRYQDIEKESESASELHKLLQPFLLRRVKAEVATELPKKTEVVIYHGMSALQKKYYKAILMKDLDAFENETAKKVKLQNILSQLRKCVDHPYLFDGVEPEPFEVGDHLTEASGKLHLLDKLLAFLYSGGHRVLLFSQMTQMLDILQDYMDYRGYSYERVDGSVRGEERHLAIKNFGQQPIFVFLLSTRAGGVGMNLTAADTVIFVDSDFNPQNDLQAAARAHRIGQNKSVKVIRLIGRDTVEEIVYRKAASKLQLTNMIIEGGHFTLGAQKPAADADLQLSEILKFGLDKLLASEGSTMDEIDLESILGETKDGQWVSDALPAAEGGSRDQEEGKNHMYLFEGKDYSKEPSKEDRKSFEQLVNLQKTLLEKASQEGRSLRNKGSVLIPGLVEGSTKRKRVLSPEELEDRQKKRQEAAAKRRRLIEEKKRQKEEAEHKKKMAWWESNNYQSFCLPSEESEPEDLENGEESSAELDYQDPDATSLKYVSGDVTHPQAGAEDALIVHCVDDSGHWGRGGLFTALEKRSAEPRKIYELAGKMKDLSLGGVLLFPVDDKESRNKGQDLLALIVAQHRDRSNVLSGIKMAALEEGLKKIFLAAKKKKASVHLPRIGHATKGFNWYGTERLIRKHLAARGIPTYIYYFPRSKSAVLHSQSSSSSSRQLVP
modifications: here or on the partner: mono-ADP-ribose on S6
[1]
  ALC1 nucleosome remodeling rate constant (REA assay): < 0.0003 min⁻¹

B2: FLAG-HPF1 (amino acids 27-346) (natural protein)
chain: KFCEADVSSDLRKEVENHYKLSLPEDFYHFWKFCEELDPEKPSDSLSASLGLQLVGPYDILAGKHKTKKKSTGLNFNLHWRFYYDPPEFQTIIIGDNKTQYHMGYFRDSPDEFPVYVGINEAKKNCIIVPNGDNVFAAVKLFLTKKLREITDKKKINLLKNIDEKLTEAARELGYSLEQRTVKMKQRDKKVVTKTFHGAGLVVPVDKNDVGYRELPETDADLKRICKTIVEAASDEERLKAFAPIQEMMTFVQFANDECDYGMGLELGMDLFCYGSHYFHKVAGQLLPLAYNLLKRNLFAEIIEEHLANRSQENIDQLAA
[2]
  share of mono-ADP-ribosylated H3 (1-20) peptide among the products of the PARP1 ADPr reaction (RP-HPLC), HPF1 from 5 μM to 100 μM: 94%
[3]
  inhibition of PARP1-catalyzed ADP-ribose polymerization from the H3S10ADPr1 peptide (RP-HPLC); HPF1 concentration at 50% inhibition: 14 µM
